This is an account of results in publication PMC5794333, “Identification of osmoadaptive strategies in the halophile, heterotrophic ciliate Schmidingerothrix salinarum” (PLoS Biology, 2018).

As a reminder, the Km is the concentration of substrate that gives half-maximal velocity. What is called Vmax is the top rate of the reaction or transport when substrate is in excess.

Substrate in data set [1]: O=C(O)CC(=O)C(=O)O
In words: purified protein. The note with it: 0.05 M NaCl, 0.3 mM NADH, 32.5 mM Tris/HCl pH 7.5.

Substrate in data set [2]: O=C(O)CC(C(=O)O)C(O)C(=O)O
In words: purified protein. The class given is biochemical, Escherichia coli. Particulars: 0.05 M NaCl, 0.8 mM NADP+, 1 mM MgCl2, 32.5 mM Tris/HCl pH 7.5, concentration as DL-isocitrate.

B1: MDHE.coli (Escherichia coli K-12) (protein)
chain: MKVAVLGAAGGIGQALALLLKTQLPSGSELSLYDIAPVTPGVAVDLSHIPTAVKIKGFSGEDATPALEGADVVLISAGVARKPGMDRSDLFNVNAGIVKNLVQQVAKTCPKACIGIITNPVNTTVAIAAEVLKKAGVYDKNKLFGVTTLDIIRSNTFVAELKGKQPGEVEVPVIGGHSGVTILPLLSQVPGVSFTEQEVADLTKRIQNAGTEVVEAKAGGGSATLSMGQAAARFGLSLVRALQGEQGVVECAYVEGDGQYARFFSQPLLLGKNGVEERKSIGTLSAFEQNALEGMLDTLKKDIALGEEFVNK
As to B1, in data set [1], the Km was 22 µM and the Vmax turned out to be 1490 µmol/min/mg.

B2: ICDHE.coli (Escherichia coli K-12) (protein)
chain: MESKVVVPAQGKKITLQNGKLNVPENPIIPYIEGDGIGVDVTPAMLKVVDAAVEKAYKGERKISWMEIYTGEKSTQVYGQDVWLPAETLDLIREYRVAIKGPLTTPVGGGIRSLNVALRQELDLYICLRPVRYYQGTPSPVKHPELTDMVIFRENSEDIYAGIEWKADSADAEKVIKFLREEMGVKKIRFPEHCGIGIKPCSEEGTKRLVRAAIEYAIANDRDSVTLVHKGNIMKFTEGAFKDWGYQLAREEFGGELIDGGPWLKVKNPNTGKEIVIKDVIADAFLQQILLRPAEYDVIACMNLNGDYISDALAAQVGGIGIAPGANIGDECALFEATHGTAPKYAGQDKVNPGSIILSAEMMLRHMGWTEAADLIVKGMEGAINAKTVTYDFERLMDGAKLLKCSEFGDAIIENM
notes: N-terminal His-tag, cloned from genomic DNA into pETDuet-1, E. coli BL21; Ni-NTA
Consider B2, for which, in data set [2], the Michaelis-Menten constant (Km) was found to be 21 µM and the Vmax amounted to 46 µmol/min/mg.
